Source: IntAct's records for PubMed 32493513

B1: Disrupted in schizophrenia 1 homolog (Mus musculus), Q811T9 (parent)
chain: MQGGGPRGAPIHSPSHGADSGHGLPPAVAPQRRRLTRRPGYMRSTAGSGIGFLSPAVGMPHPSSAGLTGQQSQHSQSKAGQCGLDPGSHCQASLVGKPFLKSSLVPAVASEGHLHPAQRSMRKRPVHFAVHSKNDSRQSERLTGSFKPGDSGFWQELLSSDSFKSLAPSLDAPWNKGSRGLKTVKPLASPALNGPADIASLPGFQDTFTSSFSFIQLSLGAAGERGEAEGCLPSREAEPLHQRPQEMAAEASSSDRPHGDPRHLWTFSLHAAPGLADLAQVTRSSSRQSECGTVSSSSSDTGFSSQDASSAGGRGDQGGGWADAHGWHTLLREWEPMLQDYLLSNRRQLEVTSLILKLQKCQEKVVEDGDYDTAETLRQRLEELEQEKGRLSWALPSQQPALRSFLGYLAAQIQVALHGATQRAGSDDPEAPLEGQLRTTAQDSLPASITRRDWLIREKQRLQKEIEALQARMSALEAKEKRLSQELEEQEVLLRWPGCDLMALVAQMSPGQLQEVSKALGETLTSANQAPFQVEPPETLRSLRERTKSLNLAVRELTAQVCSGEKLCSSLRRRLSDLDTRLPALLEAKMLALSGSCFSTAKELTEEIWALSSEREGLEMFLGRLLALSSRNSRRLGIVKEDHLRCRQDLALQDAAHKTRMKANTVKCMEVLEGQLSSCRCPLLGRVWKADLETCQLLMQSLQLQEAGSSPHAEDEEQVHSTGEAAQTAALAVPRTPHPEEEKSPLQVLQEWDTHSALSPHCAAGPWKEDSHIVSAEVGEKCEAIGVKLLHLEDQLLGAMYSHDEALFQSLQGELQTVKETLQAMILQLQPTKEAGEASASYPTAGAQETEA
B2: Disrupted in schizophrenia 1 protein (Homo sapiens), Q9NRI5 (parent)
chain: MPGGGPQGAPAAAGGGGVSHRAGSRDCLPPAACFRRRRLARRPGYMRSSTGPGIGFLSPAVGTLFRFPGGVSGEESHHSESRARQCGLDSRGLLVRSPVSKSAAAPTVTSVRGTSAHFGIQLRGGTRLPDRLSWPCGPGSAGWQQEFAAMDSSETLDASWEAACSDGARRVRAAGSLPSAELSSNSCSPGCGPEVPPTPPGSHSAFTSSFSFIRLSLGSAGERGEAEGCPPSREAESHCQSPQEMGAKAASLDGPHEDPRCLSRPFSLLATRVSADLAQAARNSSRPERDMHSLPDMDPGSSSSLDPSLAGCGGDGSSGSGDAHSWDTLLRKWEPVLRDCLLRNRRQMEVISLRLKLQKLQEDAVENDDYDKAETLQQRLEDLEQEKISLHFQLPSRQPALSSFLGHLAAQVQAALRRGATQQASGDDTHTPLRMEPRLLEPTAQDSLHVSITRRDWLLQEKQQLQKEIEALQARMFVLEAKDQQLRREIEEQEQQLQWQGCDLTPLVGQLSLGQLQEVSKALQDTLASAGQIPFHAEPPETIRSLQERIKSLNLSLKEITTKVCMSEKFCSTLRKKVNDIETQLPALLEAKMHAISGNHFWTAKDLTEEIRSLTSEREGLEGLLSKLLVLSSRNVKKLGSVKEDYNRLRREVEHQETAYETSVKENTMKYMETLKNKLCSCKCPLLGKVWEADLEACRLLIQSLQLQEARGSLSVEDERQMDDLEGAAPPIPPRLHSEDKRKTPLKVLEEWKTHLIPSLHCAGGEQKEESYILSAELGEKCEDIGKKLLYLEDQLHTAIHSHDEDLIQSLRRELQMVKETLQAMILQLQPAKEAGEREAAASCMTAGVHEAQA

Variants of: B1
Settings: with drd2_human DRD2, P14416
Chain of drd2_human DRD2, P14416 (P14416 whole entry): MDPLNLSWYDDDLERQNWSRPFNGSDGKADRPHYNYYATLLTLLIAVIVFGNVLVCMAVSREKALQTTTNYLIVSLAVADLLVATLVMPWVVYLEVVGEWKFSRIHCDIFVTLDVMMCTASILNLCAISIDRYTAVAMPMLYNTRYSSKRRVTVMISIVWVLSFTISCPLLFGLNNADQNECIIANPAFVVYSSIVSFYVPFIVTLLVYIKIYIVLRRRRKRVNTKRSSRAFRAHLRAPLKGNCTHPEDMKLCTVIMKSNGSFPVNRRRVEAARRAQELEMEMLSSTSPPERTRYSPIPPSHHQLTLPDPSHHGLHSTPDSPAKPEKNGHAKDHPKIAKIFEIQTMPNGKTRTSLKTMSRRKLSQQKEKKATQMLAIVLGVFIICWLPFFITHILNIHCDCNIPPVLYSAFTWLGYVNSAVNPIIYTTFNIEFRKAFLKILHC

Variant | effect of a mutation on the interaction
L100P | increasing interaction

Variants of: B1
Settings: with drd2_mouse Drd2, P61168
Chain of drd2_mouse Drd2, P61168 (P61168 whole entry): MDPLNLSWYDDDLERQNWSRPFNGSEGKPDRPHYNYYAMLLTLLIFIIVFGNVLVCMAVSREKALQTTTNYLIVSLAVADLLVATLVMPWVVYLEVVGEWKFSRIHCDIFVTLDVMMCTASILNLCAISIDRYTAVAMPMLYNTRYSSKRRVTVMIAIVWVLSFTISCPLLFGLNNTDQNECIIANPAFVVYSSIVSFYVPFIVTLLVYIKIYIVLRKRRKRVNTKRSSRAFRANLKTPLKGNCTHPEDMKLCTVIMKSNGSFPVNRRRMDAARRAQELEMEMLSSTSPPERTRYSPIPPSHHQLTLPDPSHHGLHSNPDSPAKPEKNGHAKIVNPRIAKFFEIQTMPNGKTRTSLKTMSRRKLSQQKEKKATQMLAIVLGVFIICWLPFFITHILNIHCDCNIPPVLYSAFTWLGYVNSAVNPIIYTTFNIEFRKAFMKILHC

Variant | effect of a mutation on the interaction
L100P | increasing interaction

Variants of: B2
Settings: with drd2_human DRD2, P14416

Variant | effect of a mutation on the interaction
A83V | decreasing interaction

Variants of: B2
Settings: with drd2_human DRD2, P14416
Remark: another data set of the same source

Variant | effect of a mutation on the interaction
R264Q | increasing interaction
